Assays:
[1] = biological target: human CD19 (as in Table 11) (human) (UniProt P15391); test: binding to human CD19 after incubation at pH 7.4; method not stated
[2] = biological target: human CD19 (as in Table 11) (human) (UniProt P15391); test: binding to human CD19 after incubation at pH 6.0; method not stated
[3] = biological target: human CD19 (as in Table 11) (human) (UniProt P15391); test: BIAcore (SPR); format not stated

human CD19 binding after pH 7.4 incubation [%] [1]: 46%
human CD19 binding after pH 6.0 incubation [%] [2]: 90%
Kd [3]: 5 nM
B1: wild-type humanized anti-human CD19 antibody 8B8 (antibody, V domains shown)
VH: QVQLVQSGAEVKKPGASVKVSCKASGYTFTDYIMHWVRQAPGQGLEWMGYINPYNDGSKYTEKFNGRVTMTSDTSISTAYMELSRLRSDDTAVYYCARGTYYYGSALFDYWGQGTTVTVSS
VL: DIVMTQTPLSLSVTPGQPASISCKSSQSLENSNGNTYLNWYLQKPGQSPQLLIYRVSKRFSGVPDRFSGSGSGTDFTLKISRVEAEDVGVYYCLQLTHVPYTFGQGTKLEIK

Reference: patent US20200270321A1
